B1: SEQ ID NO 203 (designed binder)
chain: VSDVPRDLEVVAATPTSLLISWDAPAVTVRAYQIRYAYYSVGRQEFTVPGSKSTATISGLRPGVKYHISVYAVNGGMVTDPISINYRT
B2: SEQ ID NO 204 (designed binder)
chain: VSDVPRDLEVVAATPTSLLISWDAPAVTVRYYWIIYWEAWEYVQAQEFTVPGSKSTATISGLKPGVHYGIMVSAVSGEQPWYPISINYRT
B3: SEQ ID NO 205 (designed binder)
chain: VSDVPRDLEVVAATPTSLLISWDAPAVTVRIYSIYYYSYVMRGYYFQEFTVLGSKSTATISGLKPGVNYDINVQAVYHRGWRYPISINYRT
B4: SEQ ID NO 206 (designed binder)
chain: VSDVPRDLEVVAATPTSLLISWDAPAVAVRAYSIDYYHDNGDGTQEFTVPGSKSTATISGLKPGVTYGILVYAVVSNMGIPISINYRT
B5: SEQ ID NO 207 (designed binder)
chain: VSDVPRDLEVVAATPTSLLISWDAPAVTVRSYYIGYSAYDEYGGRQEFTVPGSKSTATISGLKPGVSYSINVFAVYTMTGRAPISINYRT
B6: SEQ ID NO 208 (designed binder)
chain: VSDVPRDLEVVAATPTSLLISWDAPAVTVRKYSIYYFSSYSGIAQEFTVPGSKSTATISGLKPGVYYGIYVEAVYHHYSPPISINYRT
B7: SEQ ID NO 209 (designed binder)
chain: VSDVPRDLEVVAATPTSLLISWDAPAVTVRNYYIQYMVNYNDTQEFTVPGSKSTATISGLKPGVYYDIKVAAVYVAEDRPISINYRT
B8: SEQ ID NO 210 (designed binder)
chain: VSDVPRDLEVVAATPTSLLISWDAPAVTVRKYYITYYRGRSGNQEFTVPGSKSTATISGLKPGVKYHILVSAVKYPFRRLPISINYRT
B9: SEQ ID NO 211 (designed binder)
chain: VSDVPRDLEVVAATPTSLLISWDAPAVTVRTYWIVYYRSVYSNGQEFTVPGSKSTATISGLKPGVIYSIRVIAVSYYYYGPISINYRT
B10: SEQ ID NO 212 (designed binder)
chain: VSDVPRDLEVVAATPTSLLISWDAPAVTVRTYSISYSFGLDYEYDQEFTVPGSKSTATISGLKPGVQYYIVVDAVAGWQYYPISINYRT
B11: SEQ ID NO 213 (designed binder)
chain: VSDVPRDLEVVAATPTSLLISWDAPAVTVRGYSIKYGSTISADQEFTVPGSKSTATISGLKPGVFYVIMVWAVYYAYANYPISINYRT
B12: SEQ ID NO 214 (designed binder)
chain: VSDVPRDLEVVAATPTSLLISWDAPAVTVRSYHIYDYYNVHSYYGQEFTVPGSKSTATISGLKPGVSYAIYVGAVNEKQLGPISINYRT
B13: SEQ ID NO 215 (designed binder)
chain: VSDVPRDLEVVAATPTSLLISWDAPAVTVRTYVISYMSYDAQGGQNQEFTVPGSKSTATISGLKPGVAYNIIVSAVGGGQQAVPISINYRT
B14: SEQ ID NO 216 (designed binder)
chain: VSDVPRDLEVVAATPTSLLISWDAPAVTVREYSIYHSWTLVYRRQEFTVPGSKSTATISGLKPGVNYYIYVGAVDNGYGPDPISINYRT
B15: SEQ ID NO 218 (designed binder)
chain: VSDVPRDLGVVAATPTSLRISWDAPAVTVRSYDIYYWYTTGGSQEFTVPGSKSTATISGLKPGVMYNIYVTAVDADVGGPISINYRT
B16: SEQ ID NO 219 (designed binder)
chain: VSDVPRDLEVVAATPTSLLISWDAPAVTVRRYYIGYNWQSPAWNQEFTVPGSKSTATISGLKPGVYYQIYVAAVLRYGDYAPISINYRT
B17: SEQ ID NO 220 (designed binder)
chain: VSDVPRDLEVVAATPTSLLISWDAPAVTVRSYSIGYFGAYRNWVQEFTVPGSKSTATISGLKPGVTYYIEVYAVYSNPVYPISINYRT
B18: SEQ ID NO 221 (designed binder)
chain: VSDVPRDLEVVAATPTSLLISWDAPAVTVRKYQIYYYYSAYVKESQEFTVPGSKSTATISGLKPGVSYNIAVYAVSKSRYQPPISINYRT
B19: SEQ ID NO 222 (designed binder)
chain: VSDVPRDLEVVAATPTSLLTSWDAPAVTVRNYAIYYYDDDTGRQEFTVPGSKSTATISGLKPGVDYYIGVEAVWYWVSSPISINYRT
B20: SEQ ID NO 223 (designed binder)
chain: VSDVPRDLEVVAATPTSLLISWDAPAVTVRTYTIWYVQRYAYSQEFTVPGSKSTATISGLKPGVSYSISVRAVSTDRYYPISINYRT
B21: SEQ ID NO 224 (designed binder)
chain: VSDVPRDLEVVAATPTSLLISWDAPAVTVRYYSIAYWQLYLPVQEFTVPGSKSTATISGLKPGVSYGITVEAVMSGYSIYPISINYRT
B22: SEQ ID NO 225 (designed binder)
chain: VSDVPRDLEVVAAAPTSLLISWDAPAVTVRKYYIWYGYSYFVAYSSYQEFTVPGSKSTATISGLKPGVRYYIGVLAVKYPGDYYPISINYRT
B23: SEQ ID NO 226 (designed binder)
chain: VSDVPRDLEVVAATPTSLLISWDAPAVTVRYHSIGYNYYGMYQEFTVPGSKSTATISGLKPGVYYYIYVRAVTGREAAPISINYRT
B24: SEQ ID NO 227 (designed binder)
chain: VSDVPRDLEVVAATPTSLLISWDAPAVTVRTYQIEYVSSYYRWTQEFTVPGSKSTATISGLKPGVVYFIYVAAVRDGPNDPISINYRT
B25: SEQ ID NO 228 (designed binder)
chain: VSDVPRDLEVVAATPTSLLISWDAPAVTVRSYKISYYGYHWVYQEFTVPGSKSTATISGLKPGVSYLISVSAVDYYGVLPISINYRT
B26: SEQ ID NO 229 (designed binder)
chain: VSDVPRDLEVVAATPTSLLISWDAPAVTVRTYYIGYGMYTYGQEFTVPGSKSTTTISGLKPGVVYDIYVWAVGFGRYVDPISINYRT
B27: SEQ ID NO 230 (designed binder)
chain: VSDVPRDLEVVAATPTSLLISWDAPAVTVRNYYIGYRYTVANWCYQEFTVPGSKSTATISGLKPGVSYWITAKAVVFEGDHPISINYRT
B28: SEQ ID NO 231 (designed binder)
chain: VSDVPRDLEVVAATPTSLLISWDAPAVTVRKYYIGYKLQVMEPDQEFTVPGSKSTATISGLKPGVEYWIGVDAVSYYWGFDPISINYRT
B29: SEQ ID NO 232 (designed binder)
chain: VSDVPRDLEVVAATPTSLLISWDAPAVTVRGYGIYYGDTGDTQEFTVPGSKSTATISGLKPGVMYSIVVFAVEWYMWQPISINYRT
B30: SEQ ID NO 233 (designed binder)
chain: VSDVPRDLEVVAATPTSLLISWDAPAVTVRYYWIQYYIYYSRGTQEFTVPGSKSTATISGLKPGVNYSIGVQAVQAYFGEPISINYRT
B31: SEQ ID NO 234 (designed binder)
chain: VSDVPRDLEVVAATPTSLLISWDAPAVTVRSYRIMYSGYYAWEYSRQEFTVPGSKSTATISGLKPGVIYAIHVSAVVTNWEGPISINYRT
B32: SEQ ID NO 235 (designed binder)
chain: VSDVPRDLEVVAATPTSLLISWDAPAVTVRDYWIYYRYSWPYGSQEFTVPGSKSTATISGLKPGVTYDIQVEAVYGSESGPISINYRT
B33: SEQ ID NO 236 (designed binder)
chain: VSDVPRDLEVVAATPTSLLISWDAPAVTVRYYYGIYYAGKAGGDYFITQEFTVPGSKSTATISGLKPGVEYRIYVAAVGYHYTPPISINYRT
B34: SEQ ID NO 237 (designed binder)
chain: VSDVPRDLEVVAATPTSLLISWDAPAVTVRNYSIKYKYIPYVSHQEFTVPGSKSTATISGLKPGVTYSIRVQAVYYLIERYPISINYRT
B35: SEQ ID NO 238 (designed binder)
chain: VSDVPRDLEVVAATPTSLLISWDAPAVTVRIYYIAYGYYPGWGRAGSQEFTVPGSKSTATISGLKPGVTYGISVSAVEERRKVPISINYRT
B36: SEQ ID NO 240 (designed binder)
chain: NVSPPRRARVTDATETTITISWRTKTETITDFEVAALPMVSTGIQRTIKPDVRSYTITGLQPGTTYYISLYTLDDDGPGTPVVIDAST
B37: SEQ ID NO 241 (designed binder)
chain: NVSPPRRARVTDATETTITISWRTKTETITSFNVVAYPSSQDGIQRTIKPDVRSYTITGLQPGTGYQIHLTTLGHLSFSPVVIDAST
B38: SEQ ID NO 242 (designed binder)
chain: NVSPPRRARVTDATETTITISWRTKTETITYFTVDAAPSLVVDNIQRTIKPDVRSYTITGLQPGTYYIILLYTLYNYDALPVVIDAST
B39: SEQ ID NO 243 (designed binder)
chain: NVSPPRRARVTDATETTITISWRTKTETITLFEVYADPQVSNGTYIQRTIKPDVRSYTITGLQPGTYYRIGLYTLSDYEKSTPVVIDAST
B40: SEQ ID NO 244 (designed binder)
chain: NVSPPRRARVTDATETTITISWRTKTETITRFFVSAVPFETGTIQRTIKPDVRSYTITGLQPGTAYDIALYTLFGYYYYPVVIDAST

Target: T1, human serum albumin (human, UniProt P02768 25-609)
T1 construct: also called HSA
T1 sequence (P02768 25-609 limits assumed): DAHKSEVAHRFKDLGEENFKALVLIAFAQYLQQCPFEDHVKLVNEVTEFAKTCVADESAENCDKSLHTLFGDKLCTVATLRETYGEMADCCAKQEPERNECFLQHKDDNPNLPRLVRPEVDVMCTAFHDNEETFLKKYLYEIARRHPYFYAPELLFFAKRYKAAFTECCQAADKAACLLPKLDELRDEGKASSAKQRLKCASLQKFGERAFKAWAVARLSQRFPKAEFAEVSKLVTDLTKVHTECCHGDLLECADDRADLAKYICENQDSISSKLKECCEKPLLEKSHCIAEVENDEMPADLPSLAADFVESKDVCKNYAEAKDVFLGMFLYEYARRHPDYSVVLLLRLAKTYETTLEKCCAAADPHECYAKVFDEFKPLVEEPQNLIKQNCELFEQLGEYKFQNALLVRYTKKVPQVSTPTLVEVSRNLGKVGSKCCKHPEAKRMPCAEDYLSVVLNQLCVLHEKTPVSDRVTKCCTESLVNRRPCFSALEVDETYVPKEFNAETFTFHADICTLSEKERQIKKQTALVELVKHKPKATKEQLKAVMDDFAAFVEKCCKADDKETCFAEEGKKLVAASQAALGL
Assay: cradle library selection hit

Binder	binding result
B1	binds
B2	binds
B3	binds
B4	binds
B5	binds
B6	binds
B7	binds
B8	binds
B9	binds
B10	binds
B11	binds
B12	binds
B13	binds
B14	binds
B15	binds
B16	binds
B17	binds
B18	binds
B19	binds
B20	binds

Binder	binding result
B21	binds
B22	binds
B23	binds
B24	binds
B25	binds
B26	binds
B27	binds
B28	binds
B29	binds
B30	binds
B31	binds
B32	binds
B33	binds
B34	binds
B35	binds
B36	binds
B37	binds
B38	binds
B39	binds
B40	binds

— US20140057807A1 (UNIVERSITY OF CHICAGO, published 2014)
